Results taken from article PMC11029812, “Liver-targeted polymeric prodrugs delivered subcutaneously improve tafenoquine therapeutic window for malaria radical cure” (Science Advances, 2024).

What was measured:
P. cynomolgi hypnozoites = assay: P. cynomolgi anti-hypnozoite assay in primary NHP hepatocytes (radical cure mode); assay type: cell-based; conditions: treatment days 4 to 7 after infection, readout day 8
Protocol: (§1) Cryopreserved primary cynomolgus monkey hepatocytes (lot STX) and hepatocyte culture medium (HCM) (InVitroGro CP medium) were obtained from BioIVT Inc. (Baltimore, MD, USA) and thawed following the manufacturer’s recommendations. Hepatocytes were seeded in 384-well collagen-coated plates and used for experiments within 2 days after seeding as previously described ([52]). Infectious sporozoites were obtained from Anopheles dirus mosquitoes infected with P. cynomolgi B strain and were used to infect the plated primary NHP hepatocytes 2 days after seeding ([52], [102]). HCM was changed the day after infection and every other day thereafter until drug treatment. […]
(§2) Imaging and image analysis of assay plates were completed using an Operetta CLS high-content imaging system and Harmony 4.9 software (PerkinElmer, Waltham, MA, USA). […] Using similar methodology described previously, parasites were counted with the TRITC channel and were identified by area, mean intensity, maximum intensity, and cell roundness parasites ([50], [99]–[102]). […] Percent inhibition (PI) and toxicity values were calculated relative to in-plate negative controls for parasites and hepatocytes, respectively, using GraphPad Prism software (GraphPad Software Inc., USA, Windows version 9.5.1) using the average of experimental and biological replicates. […]

G6PD-deficient huRBCs = assay: Hemotoxicity in humanized G6PD deficiency mouse model; assay type: in vivo, human RBCs engrafted in NOD/SCID mice
Protocol: Following procedures as previously published ([46]), hemotoxicity studies using huRBC engraftments were conducted in mice.
Female (8 to 9 weeks) NOD.CB17-Prkdcscid/J [nonobese diabetic severe combined immunodeficient (NOD/SCID)] mice were purchased from The Jackson Laboratory (Bar Harbor, ME). The animals were housed in a cage maintained in a specific pathogen–free animal facility and were acclimated for 1 week in the facility before initiation of experimental procedures. Sterile food and water were provided ad libitum throughout the study as previously described ([64]). All animal studies were performed under IACUC-approved protocols and adhere to the principles stated in the Guide for the Care and Use of Laboratory Animals ([100]).
Polymer solutions for SC administration were prepared in DPBS at the final dosing concentrations. All drug concentrations were calculated per the free base molecular weights of TQ. The TQ parent compound was administered intragastrically via an intragastric feeder tube. Polymers and vehicle were administered SC in the right flank. TQ, pSVCTQ, and vehicle were given as a single dose on day 0. In this model, the TQ dose studied was 10 mg/kg; pSVCTQ was tested at doses of 2.5, 5.0, or 10 mg/kg TQ equivalent.
The percentage of huRBCs at the end of this period was analyzed by flow cytometry to evaluate glycophorin A (huRBCs) and Ter119 (mouse RBCs) circulating in peripheral blood. […] The G6PD-deficient huRBC NOD/SCID mice were dosed with pSVCTQ or parent drug prepared as described above, with three to four mice per group. On days 4 and 7 following dosing, huRBC levels were assessed again by flow cytometry (glycophorin^+Ter119^−), along with the percentage of murine reticulocytes (CD71^+Ter119) as an additional marker of hemolytic toxicity. Mice were euthanized on day 7 following initiation of treatment.
Microsoft Excel and GraphPad Prism were used throughout the PK analysis to process the data, calculate pharmacokinetic parameters, and yield statistical information. A linear regression model was produced using the least squares fitting method with 1/x^2 scaling for the assay calibrators. […] For the G6PD deficiency model, data analysis was performed using GraphPad Prism (GraphPad Software). […] An F test comparing the two dose-response curves was also run. For all other work, a combination of Microsoft Excel and GraphPad Prism was used.

primary NHP hepatocytes = assay: Hepatocyte toxicity in the P. cynomolgi anti-hypnozoite assay; assay type: cell-based, cynomolgus monkey; conditions: treatment days 4 to 7 after infection, readout day 8
Protocol: as §1, §2

## p(GalNAc-MA-co-SVCTQ-MA) [pSVCTQ]
P. cynomolgi hypnozoites
  IC50: 25.6 µM
G6PD-deficient huRBCs; curve fit of Fig. 4B, single dose, pSVCTQ SC, TQ oral, day 7
  Dose resulting in 50% hemolysis (TD50): 11.2 mg/kg
G6PD-deficient huRBCs; from median effective doses
  Reduction of hemotoxicity compared to oral TQ: greater than twofold
G6PD-deficient huRBCs; single dose day 0, pSVCTQ SC, TQ oral, A− G6PD-deficient donor
  Median effective dose (dose that results in 50% huRBC loss by day 7 relative to vehicle control): 11.4 mg/kg
Primary NHP hepatocytes
  IC50: > 161 µM
